Measured values as given in patent publication US20260242839A1, “GLYCOSIDE PRODUCT BIOSYNTHESIS AND RECOVERY” (Manus Bio Inc., priority 2023, published 2026).
Residue numbers refer to the chain shown, from its start. Names and notes keep the numbering of the source.

B1: A143W: mutation to UGT enzyme of SEQ ID NO: 14 (protein)
chain: MATKNSSGMSLAERFWLTLSRSSLVVGRSCVEFEPETVPLLSTLRGKPITFLGLMPPLHEGRREDGEDATVRWLDAQPAKSVVYVALGSEVPLGVEKVHELALGLELAGTRFLWALRKPTGVSDADLLPAGFEERTRGRGVVWTRWVPQMSILAHAAVGAFLTHCGWNSTIEGLMFGHPLIMLPITGDQGPNARLIEAKNAGLQVARNDGDGSFDREGVAAAIRAVAVEEESSKVFQAKAKKLQEIVADMACHERYIDGFIQQLRSYKDDSGYSSSYAAAAGMHVVICPWLAFGHLLPCLDLAQRLASRGHRVSFVSTPRNISRLPPVRPALAPLVAFVALPLPRVEGLPDGAESTNDVPHDRPDMVELHRRAFDGLAAPFSEFLGTACADWVIVDSFHHWAAAAALEHKVPCAMMLLGSAEMIASIADERLEHAETESPAAAGQGRPAAAPTFEVARMKLIR
B2: I427F: mutation to UGT enzyme of SEQ ID NO: 14 (protein)
chain: B1 chain with W143A, I427F
B3: T186I: mutation to UGT enzyme of SEQ ID NO: 14 (protein)
chain: B1 chain with W143A, T186I
B4: M250K_A251E_C252L: mutation to UGT enzyme of SEQ ID NO: 14 (protein)
chain: B1 chain with W143A, M250K, A251E, C252L
B5: T453F: mutation to UGT enzyme of SEQ ID NO: 14 (protein)
chain: B1 chain with W143A, T453F
B6: C252R: mutation to UGT enzyme of SEQ ID NO: 14 (protein)
chain: B1 chain with W143A, C252R
B7: V38F: mutation to UGT enzyme of SEQ ID NO: 14 (protein)
chain: B1 chain with V38F, W143A
B8: R45F: mutation to UGT enzyme of SEQ ID NO: 14 (protein)
chain: B1 chain with R45F, W143A
B9: T37S: mutation to UGT enzyme of SEQ ID NO: 14 (protein)
chain: B1 chain with T37S, W143A
B10: Q244K: mutation to UGT enzyme of SEQ ID NO: 14 (protein)
chain: B1 chain with W143A, Q244K
B11: V26I: mutation to UGT enzyme of SEQ ID NO: 14 (protein)
chain: B1 chain with V26I, W143A
B12: L11I: mutation to UGT enzyme of SEQ ID NO: 14 (protein)
chain: B1 chain with L11I, W143A

Test system: steviol glycoside
Test: steviol glycoside bioconversion by E. coli expressing individual mutations of UGT SEQ ID NO: 14
Type: cell-based
Details: fold improvement of % conversion vs parent UGT SEQ ID NO: 14; stevia leaf extract and glucose fed; 37° C., 48 hr
Description: Fold improvement is with respect to % steviol glycoside conversion of the parent UGT enzyme of SEQ ID NO: 14. The UGT enzyme of SEQ ID NO: 15 has the following mutations from SEQ ID NO: 14: ins_A2_T3_RR, H59P, A238E, L417F. Stevia leaf extract and glucose were fed to the bioconversion strains. Bioconversion took place at 37° C. for 48 hr. Data were quantified by reverse phase LC DAD to quantify conversion of steviol glycosides.
Fold improvement (FI) is with respect to % steviol glycoside conversion.

Row | Molecule | FI %Stevioside→rebE | FI %rebA→rebD
1 | B1 | 1.3 | 1.3
2 | B2 | 1.15 | 1.24
3 | B3 | 1.48 | 1.24
4 | B4 | 1.40 | 1.23
5 | B5 | 1.32 | 1.20
6 | B6 | 1.25 | 1.19
7 | B7 | 1.33 | 1.19
8 | B8 | 1.35 | 1.18
9 | B9 | 1.35 | 1.17
10 | B10 | 1.25 | 1.16
11 | B11 | 1.18 | 1.16
12 | B12 | 1.39 | 1.16
